Experimental data taken from patent publication US20070167369A1, “Novel use of isolated polypeptide comprising four FAS-1 domains, EM1 domain and RGD motif” (KYUNGPOOK NATIONAL UNIVERSITY INDUSTRY-ACADEMIC COOPERATION …, priority 2004, published 2007).

B1: truncated βig-h3: recombinant human βig-h3 with EMI domain, all four fas-1 domains and RGD motif; residues 68-653 of SEQ ID NO: 1 (SEQ ID NO: 66) (protein, listed as Homo sapiens)
chain: WYQRKICGKSTVISYECCPGYEKVPGEKGCPAALPLSNLYETLGVVGSTTTQLYTDRTEKLRPEMEGPGSFTIFAPSNEAWASLPAEVLDSLVSNVNIELLNALRYHMVGRRVLTDELKHGMTLTSMYQNSNIQIHHYPNGIVTVNCARLLKADHHATNGVVHLIDKVISTITNNIQQIIEIEDTFETLRAAVAASGLNTMLEGNGQYTLLAPTNEAFEKIPSETLNRILGDPEALRDLLNNHILKSAMCAEAIVAGLSVETLEGTTLEVGCSGDMLTINGKAIISNKDILATNGVIHYIDELLIPDSAKTLFELAAESDVSTAIDLFRQAGLGNHLSGSERLTLLAPLNSVFKDGTPPIDAHTRNLLRNHIIKDQLASKYLYHGQTLETLGGKKLRVFVYRNSLCIENSCIAAHDKRGRYGTLFTMDRVLTPPMGTVMDVLKGDNRFSMLVAAIQSAGLTETLNREGVYTVFAPTNEAFRALPPRERSRLLGDAKELANILKYHIGDEILVSGGIGALVRLKSLQGDKLEVSLKNNVVSVNKEPVAEPDIMATNGVVHVITNVLQPPANRPQERGDELADSALEI
B2: fas-1 domain: recombinant protein containing the fourth fas-1 domain of human βig-h3 (SEQ ID NO: 64) (protein, listed as Homo sapiens)
chain: MGTVMDVLKGDNRFSMLVAAIQSAGLTETLNREGVYTVFAPTNEAFRALPPRERSRLLGDAKELANILKYHIGDEILVSGGIGALVRLKSLQGDKLEVSLKNNVVSVNKEPVAEPDIMATNGVVHVITNVL

Assays:
[1] = test system: HUVEC; experiment: Adhesion of endothelial cells to vitronectin (Example 13-1); format: cell-based, human
Description: Flat-bottomed 96-well ELISA plates (Costar, Corning, Inc., NY) were incubated overnight at 4° C. with 5 μg/ml of vitronectin (Promega, Madison, Wis.) and blocked for 1 hour at room temperature with PBS containing 2% bovine serum albumin (BSA).
Primary human umbilical vein endothelial cells (HUVEC) were cultured at 37° C. in 5% CO2 in M199 medium supplemented with 20% fetal bovine serum. For all the experiments, HUVECs were used at passage 4 or less. HUVEC cells were suspended in medium at a density of 3×10^5 cells/ml, and 0.1 ml of the cell suspension was pre-incubated with or without the indicated concentration of the truncated βig-h3, the fas-1 domain and Regenin for 40 min at 37° C., then added to each well of the coated. After incubation for 5 to 10 minutes at 37° C., unattached cells were removed by rinsing with PBS. Attached cells were then incubated for 1 hour at 37° C. in 50 mM citrated buffer (pH 5.0) containing 3.75 mM p-nitrophenyl-N-acetyl-Dglycosamide and 0.25% Triton X-100. Enzyme activity was blocked by adding 50 mM glycine buffer (pH 10.4) containing 5 mM EDTA, and the absorbance was measured at 405 nm in a Bio-Rad model 550 microplate reader.

[2] = test system: HUVECs; experiment: Migration of endothelial cells to vitronectin, transwell (Example 13-2); format: cell-based, human; conditions: for IC50: read-out: half-inhibition of migration toward vitronectin observed at; for inhibition of migration to vitronectin: various concentrations, 4 to 6 hours
Description: Cell migration assays were done in transwell plates (8 μm pore size, Costar, Cambridge, Mass.). The undersurface of the membrane was coated with 5 μg/ml of vitronectin at 4° C. and blocked for 1 hour at room temperature with PBS containing 2% BSA. HUVECs were suspended in medium at a density of 3×10^5 cells/ml, and 0.1 ml of the cell suspension was pre-incubated with or without the indicated concentration of the truncated βig-h3, the fas-1 domain and Regenin for 40 min at 37° C., then added to the upper compartment of the filter. Cells were allowed to migrate for 4 to 6 hours at 37° C. The filters were fixed with 8% glutaraldehyde and stained with crystal violet, and non-migrating cells on the upper surface of the filter were removed by wiping with a cotton swab. The extent of cell migration was determined by light microscopy, and within each well, counting was done in nine randomly selected microscopic high power fields (x200).

[3] = test system: HUVECs; experiment: Endothelial tube formation in Matrigel (Example 14); format: cell-based, human; conditions: for 70%-inhibition of tube formation observed at: concentration giving 70% inhibition; for inhibition of tube formation: various concentrations, 6 to 10 hours
Description: Matrigel (Chemicon, International Inc, Temecula, Calif.) was added (100 μl) into each well of a 96-well plate and polymerized for 30 minutes at 37° C. HUVECs were suspended in medium at a density of 3×10^5 cells/ml, and 0.1 ml of the cell suspension was pre-incubated with or without the indicated concentration of the truncated βig-h3, the fas-1 domain and Regenin for 40 min at 37° C., then seeded on the surface of the Matrigel. Cells were incubated for 6 to 10 hours at 37° C. The cells were then photographed, and branch points from 4 high-power fields (x200) were counted and averaged.

[4] = test system: Murine melanoma cells (B16F10) tumor; experiment: B16F10 tumor growth in BALB/c nude mice (Example 15-1); format: in vivo; conditions: for tumor growth inhibition compared with control: i.p. everyday from 7 days after inoculation
Description: Murine melanoma cells (B16F10) were cultured in RPMI 1640 containing 25 mM/L HEPES with 10% fetal bovine serum. Male BALB/c nude mice (5-6 weeks old) were implanted with 1×10^6 B16F10 cells into the flank subcutis and monitored tumor growth and neovascularization after systemic treatment with exogenous fas-1 domain (5 μM) or truncated βig-h3 (50 nM or 10 nM). Experimental groups were i.p. injected everyday from 7 days after tumor cell inoculation with the indicated concentration of fas-1 domain or truncated βig-h3 in a total volume of 0.1 ml PBS. The control group was given an equal volume of PBS each day. Each experimental group consisted of six to eight mice. Tumor sizes were measured using Vernier calipers every 2 to 3 days, and the measured values were substituted in the following equation (2) to calculate the volumes of the tumor. Volume of tumor=width^2×length×0.52. [Equation 2]
Wherein, ‘width’ is the shortest diameter.

[5] = various concentrations, vitronectin 5 μg/ml

| Molecule | inhibition of adhesion to vitronectin ([1]; 500, 50 and 10 nM) | inhibition of adhesion to vitronectin [1, 5] | inhibition of migration of endothelial cells to vitronectin ([2]; 500 nM) | IC50 [2] | inhibition of migration to vitronectin [2] | 70%-inhibition of tube formation observed at [3] | inhibition of tube formation [3] | tumor growth inhibition ([4]; 10 nM (68 μg/kg), i.p. everyday) | tumor growth inhibition compared with control ([4]; 50 nM (340 μg/kg)) | inhibition of adhesion to vitronectin ([1]; 500 nM) | tumor growth inhibition compared with control ([4]; 5 μM (10 mg/kg)) |
| --- | --- | --- | --- | --- | --- | --- | --- | --- | --- | --- | --- |
| B1 | clear dose-response effect | dose-dependent inhibition | strongly suppressed | 50 nM | dose-dependent inhibition | 50 nM | dose-dependent inhibition | inhibitory effect of tumor growth | equivalent levels of tumor growth inhibition | – | – |
| B2 | – | dose-dependent inhibition | – | 5000 nM | dose-dependent inhibition | 5000 nM | dose-dependent inhibition | – | – | ineffective | equivalent levels of tumor growth inhibition |
